Data on one molecule can be found in patent US20070253950A1 (Pfizer, published 2007).

Substitutions are numbered along the chain they refer to. In names and notes the source's numbering stands.

In test [1] the target is T1, human RAGE, full length, on cells (human, UniProt Q15109 23-404).
T1 construct: on transfected or infected 293 cells, stably transfected CHO cells, or endogenous in human lung sections; also called cell-surface hRAGE; 293-human RAGE
The experiment in a line: cell-based ELISA, transfected 293 cells. The protocol:
(§1) Human embryonic kidney 293 cells (American Tissue Type Culture, Manassas, Va.) cells were plated at 5×10⁶ cells per 10 cm² tissue culture plate and cultured overnight at 37° C. The next day cells were transfected with RAGE expression plasmids (pAdori1-3 vector encoding mouse, human, baboon, cynomologus monkey or rabbit RAGE) using LF2000 reagent (Invitrogen, Carlsbad Calif.) at a 4:1 ratio of reagent to plasmid DNA using the manufacturers protocol. Cells were harvested 48 hrs post-transfection using trypsin, washed once with phosphate buffered saline (PBS), then suspended in growth media without serum at a concentration of 2×10⁶ cells/ml.
(§2) Primary antibodies at 1 μg/ml were serially diluted at 1:2 or 1:3 in PBS containing 1% bovine serum albumin (BSA) in a 96-well plate. RAGE-transfected 293 cells or control parental 293 cells (50 μl) at 2×10⁶ cells/ml in serum-free growth medium were added to U-bottom 96 well plate for a final concentration of 1×10⁵ cells/well. The cells were centrifuged at 1600 rpm for 2 minutes. The supernatants were gently discarded by hand with a one-time swing and the plate was patted gently to loose the cell pellet. The diluted primary anti-RAGE antibodies or isotype-matching control antibodies (100 μl) in cold PBS containing 10% fetal calf serum (FCS) were added to the cells and incubated on ice for 1 hour. The cells were stained with 100 μl of diluted secondary anti-IgG antibody HRP conjugates (Pierce Biotechnology, Rockford, Ill.) on ice for 1 hour. Following each step of primary antibody and secondary antibody incubations, the cells were washed 3 times with ice-cold PBS. 100 μl of substrate TMB1 component (BIO FX, TMBW-0100-01) was added to the plate and incubated for 5-30 minutes at room temperature. The color development was stopped by adding 100 μl of 0.18M H₂SO₄. The cells were centrifuged and the supernatants are transferred to a fresh plate and read at 450 nm (Soft MAX pro 4.0, Molecular Devices Corporation, Sunnyvale, Calif.).
A general note: ELISA stands for enzyme-linked immunosorbent assay.

A further test addresses T2, baboon RAGE, on cells (baboon, UniProt Q15109 23-404 (human entry)).
T2 construct: on transfected 293 cells or endogenous in lung sections; also called 293-baboon RAGE; RAGE in baboon lung
T2 chain: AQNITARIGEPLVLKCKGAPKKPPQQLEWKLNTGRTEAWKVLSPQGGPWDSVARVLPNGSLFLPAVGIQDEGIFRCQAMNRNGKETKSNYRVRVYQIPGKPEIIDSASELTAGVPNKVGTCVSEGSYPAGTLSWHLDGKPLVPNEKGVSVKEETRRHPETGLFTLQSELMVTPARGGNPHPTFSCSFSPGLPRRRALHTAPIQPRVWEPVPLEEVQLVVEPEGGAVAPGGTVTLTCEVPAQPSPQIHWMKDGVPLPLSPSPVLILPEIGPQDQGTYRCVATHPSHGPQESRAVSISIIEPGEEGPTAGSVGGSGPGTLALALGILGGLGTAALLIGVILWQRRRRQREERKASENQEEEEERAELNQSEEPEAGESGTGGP
The experiment in a line: cell-based ELISA, transfected 293 cells. The protocol:
as §1, §2

Test [2] concerns the target T3, cynomolgus monkey RAGE, on cells (cynomolgus monkey, UniProt Q15109 23-404 (human entry)).
T3 construct: on transfected 293 cells or endogenous in lung sections; also called 293-cyno monkey RAGE; RAGE in monkey lung
T3 chain: T2 chain with R347G
The experiment in a line: cell-based ELISA, transfected 293 cells. Here is the method: as §1, §2

In test [3] the target is T4, murine RAGE, full length, on cells (murine, UniProt Q62151 23-402).
T4 construct: on transfected or infected 293 cells; also called 293-murine RAGE; cell-surface mRAGE
T4 chain: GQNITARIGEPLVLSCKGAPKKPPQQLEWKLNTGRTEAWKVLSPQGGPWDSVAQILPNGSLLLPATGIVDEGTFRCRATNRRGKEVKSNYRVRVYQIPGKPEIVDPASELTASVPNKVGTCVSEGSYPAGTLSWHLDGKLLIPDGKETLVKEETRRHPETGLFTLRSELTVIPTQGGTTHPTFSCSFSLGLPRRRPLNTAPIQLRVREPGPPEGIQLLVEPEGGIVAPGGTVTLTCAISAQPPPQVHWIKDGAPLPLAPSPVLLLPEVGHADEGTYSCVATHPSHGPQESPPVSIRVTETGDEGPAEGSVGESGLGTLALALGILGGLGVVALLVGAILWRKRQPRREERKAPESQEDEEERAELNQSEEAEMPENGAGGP
The experiment in a line: cell-based ELISA, transfected 293 cells. Here is the method: as §1, §2

The target in test [4] is T5, human RAGE-strep tag fusion protein (human, UniProt Q15109 23-344).
T5 construct: monomeric soluble human RAGE; also called hRAGE-SA; soluble human streptavidin-tagged RAGE
T5 sequence (Q15109 other isoform, or with tags, fused parts or gaps): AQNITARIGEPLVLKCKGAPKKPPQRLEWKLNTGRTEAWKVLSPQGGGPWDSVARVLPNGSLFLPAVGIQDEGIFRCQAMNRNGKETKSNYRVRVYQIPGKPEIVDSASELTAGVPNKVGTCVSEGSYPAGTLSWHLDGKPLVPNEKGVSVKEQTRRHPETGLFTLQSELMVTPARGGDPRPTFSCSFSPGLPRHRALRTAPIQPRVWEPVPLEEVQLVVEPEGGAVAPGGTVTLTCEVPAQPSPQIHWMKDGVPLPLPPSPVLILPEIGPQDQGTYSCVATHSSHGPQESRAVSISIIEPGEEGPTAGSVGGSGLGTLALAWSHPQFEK
The test can be described thus: BIACORE capture assay: hRAGE-SA over antibody captured on anti-human Fc; steady state affinity; FC3. Here is the method: The assays were performed by coating anti-human Fc antibodies onto a CM5 BIA chip with 5000 RU (pH 5.0, 7 min.) in flow cells 1-4. Each antibody was captured by flowing at 2.0 μg/ml over the anti-Fc antibodies in flow cells 2-4 (flow cell 1 was used as a reference).
(Surface plasmon resonance follows binding to a sensor surface in real time, without labels.)

A word on the EC50: it is the midpoint of the concentration-response curve. Usually Kd stands for the equilibrium constant for the complex coming apart.

B1: chimeric XT-M4 (antibody, V domains shown)
VH: EVQLVESGGGLVQPGRSLKLSCVVSGFTFNNYWMTWIRQTPGKGLEWVASINNSGDNTYYPDSVKDRFTISRDNAKSTLYLQMNSLRSEDTATYYCTRGGDITTGFDYWGQGVMVTVSS
VL: DIQMTQSPSSMSVSLGDTITITCRASQDVGIYVNWFQQKPGKSPRRMIYRATNLADGVPSRFSGSRSGSIYSLTISSLESEDVADYHCLEFDEHPLTFGSGTKVEIK
modifications: N-linked oligosaccharide at Asn52 (CDR2) on part of the heavy chains
notes: rat XT-M4 variable regions fused to human kappa light chain and human IgG1 heavy chain constant regions; L234A and G237A in the human IgG1 Fc region; also called chimeric antibody XT-M4; XT-M4-A-1
B1: the concentration giving a half-maximal response (EC50) in test [1] is about 0.8 nM; in the test with baboon RAGE, on cells it was about 1.25 nM; in test [2], about 1.66 nM; in test [3], about 1.5 nM. This molecule also showed a Kd in test [4] of 11 nM.
